In publication PMC8837617 (2022):
No end group written: not given here. *: point of attachment. 5FAM = O=C1OC2(c3ccc(O)cc3Oc3cc(O)ccc32)c2ccc(C(=O)*)cc21

Target: MAPK ERK2 (human, UniProt P28482 1-360)
Assay: FP

MAPK ERK2, sequence (P28482 whole entry): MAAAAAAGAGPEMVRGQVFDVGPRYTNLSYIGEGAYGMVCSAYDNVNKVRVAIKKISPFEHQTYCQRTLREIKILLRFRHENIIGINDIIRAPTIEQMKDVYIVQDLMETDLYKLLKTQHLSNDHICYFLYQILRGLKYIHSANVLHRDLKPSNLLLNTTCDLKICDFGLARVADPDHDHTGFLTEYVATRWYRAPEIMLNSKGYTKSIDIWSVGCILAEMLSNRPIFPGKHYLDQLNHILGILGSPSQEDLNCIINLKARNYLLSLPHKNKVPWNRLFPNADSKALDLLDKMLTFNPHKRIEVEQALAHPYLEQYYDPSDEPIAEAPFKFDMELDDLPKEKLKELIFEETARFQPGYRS

- Kd: 23.9 µM
Binder: 5FAM-RLQERRGSNVALMLDV [fluorescent reporter peptide fl-HePTP]
